These results are taken from the supplement of paper PMC10567573.

The chains are these.
B1: BTBD1 (parent)
chain: FVLGKGRGAAAAGGPQRIPAHRFV
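Note: lentivirally expressed fusions sorted by FACS into six bins by GFP to DsRed ratio, PSI derived from sequencing read proportions per bin multiplied by bin number.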

The series covers variants of B1. The series can be described thus: protein stability index of a GFP-peptide fusion (GPS, HEK-293T) (PSI 1-6); higher = more stable. The note with it: c terminus: a fixed tail appended.
Consider FVLGKGRGLAAAGGPQRIPAHRFV [A9L], for which the protein stability index stood at 3.31.

With FVLGKGRGAAAAGGPQRIPAHGFV [R22G], the protein stability index stood at 1.08.

With FVLGKGRGAAAAGGPQRIPAHKFV [R22K], the protein stability index came to 1.82.

With FVLGKGRGASAAGGPQRIPAHRFV [A10S], the protein stability index stood at 2.

FMLGKGRGAAAAGGPQRIPAHRFV [V2M]: the protein stability index came to 2.21.

On to FDLGKGRGAAAAGGPQRIPAHRFV [V2D], for which the protein stability index came to 2.88.

Turning to FYLGKGRGAAAAGGPQRIPAHRFV [V2Y], the protein stability index came to 1.8.

On to FHLGKGRGAAAAGGPQRIPAHRFV [V2H], for which the protein stability index was 2.22.

In the case of FALGKGRGAAAAGGPQRIPAHRFV [V2A], the protein stability index stood at 1.99.

For the variant FVLGKGRGAAAAGGPQRFPAHRFV [I18F], the protein stability index was found to be 1.93.

Take FVLGKGRGAAAAGGPQNIPAHRFV [R17N]: the protein stability index was 1.64.

In the case of FVLGKGRGAAAAGGPQRIPAMRFV [H21M], the protein stability index turned out to be 3.14.

As for FVLGKGRGAAAAGGPQRIPAARFV [H21A], the protein stability index is 2.14.

As for FVLGKGRGAAAAGGPQRIPAHRFK [V24K], the protein stability index stood at 2.12.

In the case of KVLGKGRGAAAAGGPQRIPAHRFV [F1K], the protein stability index came out at 2.99.

With HVLGKGRGAAAAGGPQRIPAHRFV [F1H], the protein stability index was 3.4.

On to LVLGKGRGAAAAGGPQRIPAHRFV [F1L], for which the protein stability index came to 2.51.

Regarding FVLGKGRGAAAAGGPQRIPAHRRV [F23R], the protein stability index came to 1.25.

With FVLGKGRGAAAAGGPQRIPAHRMV [F23M], the protein stability index turned out to be 2.58.

As to FVLGKGRGAAAAGNPQRIPAHRFV [G14N], the protein stability index turned out to be 1.93.

Regarding FVLGKGRGAAAAGVPQRIPAHRFV [G14V], the protein stability index was 1.9.

On to FVLGKGRGAAAAGIPQRIPAHRFV [G14I], for which the protein stability index came to 1.26.

On to FVLGKPRGAAAAGGPQRIPAHRFV [G6P], for which the protein stability index amounted to 1.82.

For the variant FVLGKNRGAAAAGGPQRIPAHRFV [G6N], the protein stability index turned out to be 2.1.

FVLGKDRGAAAAGGPQRIPAHRFV [G6D]: the protein stability index amounted to 1.88.

With FVLGKYRGAAAAGGPQRIPAHRFV [G6Y], the protein stability index was 3.51.

On to FVLKKGRGAAAAGGPQRIPAHRFV [G4K], for which the protein stability index came to 1.64.

In the case of FVLGKGRGAASAGGPQRIPAHRFV [A11S], the protein stability index amounted to 2.58.

Take FVLGKGRGAALAGGPQRIPAHRFV [A11L]: the protein stability index is 1.31.

Regarding FVLGKGRGAAVAGGPQRIPAHRFV [A11V], the protein stability index amounted to 1.28.

For the variant FVLGCGRGAAAAGGPQRIPAHRFV [K5C], the protein stability index was determined as 1.66.

Consider FVLGIGRGAAAAGGPQRIPAHRFV [K5I], for which the protein stability index came to 1.75.

Consider FVLGRGRGAAAAGGPQRIPAHRFV [K5R], for which the protein stability index came out at 2.08.

For FVLGTGRGAAAAGGPQRIPAHRFV [K5T], the protein stability index was determined as 2.85.

Take FVLGHGRGAAAAGGPQRIPAHRFV [K5H]: the protein stability index came to 1.95.

With FVLGKGCGAAAAGGPQRIPAHRFV [R7C], the protein stability index was 3.48.

With FVLGKGRGAAAAGGHQRIPAHRFV [P15H], the protein stability index came out at 1.85.

On to FVLGKGRLAAAAGGPQRIPAHRFV [G8L], for which the protein stability index turned out to be 1.69.

On to FVLGKGRTAAAAGGPQRIPAHRFV [G8T], for which the protein stability index stood at 2.

Regarding FVLGKGRVAAAAGGPQRIPAHRFV [G8V], the protein stability index amounted to 1.39.
